Reference: PMC7423246, “A Peptide–Lectin Fusion Strategy for Developing a Glycan Probe for Use in Various Assay Formats” (Chemosensors (Basel, Switzerland), 2019)

Target: HIV coat protein gp120 (oligomannose bearing) (HIV (Human Immunodeficiency Virus), UniProt P04578 33-511, high-mannose-type N-glycans (oligomannose), sites not stated)
Test: MST; NT-647 labeled PFA held constant, serial dilution of gp120, in 0.1% PBST; 'effective' binding affinity
Details: both partners purified

B1: NT-647 labeled PFA (natural protein)
chain: MSKYAVANQWGGSSAPWHPGGTWVLGARDNQNVVAIEIKSGDGGKSFTGTMTYAGEGPIGFKAQRTGQNQYNVENQWGGNDAPWHPGGKWVIGGRDNQNVIALSVTSSDGGKNLSGTNTYANEGPIGFRGQIEVSHPQAPF
modifications: NT-647 fluorophore on amines (amine-reactive NT-647-NHS labelling kit)
  Kd: 4.1 ± 1.4 nM
